Results as given in article PMC4131687.

Experiments:
Details in all cases: modification not given
[1] = target: NaV1.2 (Rattus norvegicus), P04775
[2] = target: NaV1.7 (Rattus norvegicus), O08562
[3] = target: NaV1.4 (Rattus norvegicus), P15390
Chain of NaV1.4 (Rattus norvegicus), P15390 (P15390 whole entry): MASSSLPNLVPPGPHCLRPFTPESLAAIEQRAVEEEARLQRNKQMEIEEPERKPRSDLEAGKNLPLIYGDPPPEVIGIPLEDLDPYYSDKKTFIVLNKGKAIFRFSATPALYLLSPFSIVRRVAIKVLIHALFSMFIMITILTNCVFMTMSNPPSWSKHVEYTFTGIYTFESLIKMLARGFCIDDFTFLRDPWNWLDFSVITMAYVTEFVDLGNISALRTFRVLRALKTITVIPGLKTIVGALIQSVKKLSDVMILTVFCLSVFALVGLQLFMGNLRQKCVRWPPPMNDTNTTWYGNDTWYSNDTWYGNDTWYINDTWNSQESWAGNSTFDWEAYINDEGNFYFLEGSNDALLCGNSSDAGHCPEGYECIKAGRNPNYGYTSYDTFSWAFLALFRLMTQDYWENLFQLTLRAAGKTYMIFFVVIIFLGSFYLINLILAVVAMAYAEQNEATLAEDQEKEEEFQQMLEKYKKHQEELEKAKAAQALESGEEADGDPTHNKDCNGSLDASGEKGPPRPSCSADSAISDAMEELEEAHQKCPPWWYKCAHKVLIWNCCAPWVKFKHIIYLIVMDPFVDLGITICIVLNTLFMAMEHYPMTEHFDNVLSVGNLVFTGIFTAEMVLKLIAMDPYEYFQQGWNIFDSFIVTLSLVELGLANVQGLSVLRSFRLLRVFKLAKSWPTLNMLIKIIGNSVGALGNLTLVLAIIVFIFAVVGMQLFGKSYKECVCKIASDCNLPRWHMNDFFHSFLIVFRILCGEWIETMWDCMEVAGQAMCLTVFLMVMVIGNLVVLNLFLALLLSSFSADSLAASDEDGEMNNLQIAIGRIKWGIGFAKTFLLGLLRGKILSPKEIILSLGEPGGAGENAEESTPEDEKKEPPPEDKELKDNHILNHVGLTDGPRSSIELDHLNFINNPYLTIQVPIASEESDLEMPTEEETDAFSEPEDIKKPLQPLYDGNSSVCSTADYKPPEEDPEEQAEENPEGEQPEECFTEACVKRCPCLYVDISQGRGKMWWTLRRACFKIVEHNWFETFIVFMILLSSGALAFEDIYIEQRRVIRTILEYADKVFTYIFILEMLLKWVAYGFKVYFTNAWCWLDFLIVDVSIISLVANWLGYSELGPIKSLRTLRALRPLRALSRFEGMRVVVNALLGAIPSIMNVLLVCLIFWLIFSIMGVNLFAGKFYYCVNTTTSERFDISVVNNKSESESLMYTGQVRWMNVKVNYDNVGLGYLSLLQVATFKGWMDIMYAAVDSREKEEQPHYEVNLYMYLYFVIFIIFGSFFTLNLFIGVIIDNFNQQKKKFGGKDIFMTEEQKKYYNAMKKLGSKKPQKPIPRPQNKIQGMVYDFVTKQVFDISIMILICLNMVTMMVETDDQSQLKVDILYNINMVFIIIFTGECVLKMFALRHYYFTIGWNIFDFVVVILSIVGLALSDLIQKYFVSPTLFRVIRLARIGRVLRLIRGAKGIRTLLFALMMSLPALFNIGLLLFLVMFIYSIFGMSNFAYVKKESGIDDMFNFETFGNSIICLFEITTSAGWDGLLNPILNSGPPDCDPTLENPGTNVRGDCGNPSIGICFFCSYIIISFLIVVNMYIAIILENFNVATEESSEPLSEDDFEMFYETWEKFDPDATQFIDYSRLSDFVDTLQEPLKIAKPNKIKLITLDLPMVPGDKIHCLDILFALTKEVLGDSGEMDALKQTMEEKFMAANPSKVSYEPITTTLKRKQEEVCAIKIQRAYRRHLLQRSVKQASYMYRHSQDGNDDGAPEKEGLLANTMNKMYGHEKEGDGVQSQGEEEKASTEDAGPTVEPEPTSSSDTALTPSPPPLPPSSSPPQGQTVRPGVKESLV

Chain of NaV1.7 (Rattus norvegicus), O08562 (O08562 whole entry): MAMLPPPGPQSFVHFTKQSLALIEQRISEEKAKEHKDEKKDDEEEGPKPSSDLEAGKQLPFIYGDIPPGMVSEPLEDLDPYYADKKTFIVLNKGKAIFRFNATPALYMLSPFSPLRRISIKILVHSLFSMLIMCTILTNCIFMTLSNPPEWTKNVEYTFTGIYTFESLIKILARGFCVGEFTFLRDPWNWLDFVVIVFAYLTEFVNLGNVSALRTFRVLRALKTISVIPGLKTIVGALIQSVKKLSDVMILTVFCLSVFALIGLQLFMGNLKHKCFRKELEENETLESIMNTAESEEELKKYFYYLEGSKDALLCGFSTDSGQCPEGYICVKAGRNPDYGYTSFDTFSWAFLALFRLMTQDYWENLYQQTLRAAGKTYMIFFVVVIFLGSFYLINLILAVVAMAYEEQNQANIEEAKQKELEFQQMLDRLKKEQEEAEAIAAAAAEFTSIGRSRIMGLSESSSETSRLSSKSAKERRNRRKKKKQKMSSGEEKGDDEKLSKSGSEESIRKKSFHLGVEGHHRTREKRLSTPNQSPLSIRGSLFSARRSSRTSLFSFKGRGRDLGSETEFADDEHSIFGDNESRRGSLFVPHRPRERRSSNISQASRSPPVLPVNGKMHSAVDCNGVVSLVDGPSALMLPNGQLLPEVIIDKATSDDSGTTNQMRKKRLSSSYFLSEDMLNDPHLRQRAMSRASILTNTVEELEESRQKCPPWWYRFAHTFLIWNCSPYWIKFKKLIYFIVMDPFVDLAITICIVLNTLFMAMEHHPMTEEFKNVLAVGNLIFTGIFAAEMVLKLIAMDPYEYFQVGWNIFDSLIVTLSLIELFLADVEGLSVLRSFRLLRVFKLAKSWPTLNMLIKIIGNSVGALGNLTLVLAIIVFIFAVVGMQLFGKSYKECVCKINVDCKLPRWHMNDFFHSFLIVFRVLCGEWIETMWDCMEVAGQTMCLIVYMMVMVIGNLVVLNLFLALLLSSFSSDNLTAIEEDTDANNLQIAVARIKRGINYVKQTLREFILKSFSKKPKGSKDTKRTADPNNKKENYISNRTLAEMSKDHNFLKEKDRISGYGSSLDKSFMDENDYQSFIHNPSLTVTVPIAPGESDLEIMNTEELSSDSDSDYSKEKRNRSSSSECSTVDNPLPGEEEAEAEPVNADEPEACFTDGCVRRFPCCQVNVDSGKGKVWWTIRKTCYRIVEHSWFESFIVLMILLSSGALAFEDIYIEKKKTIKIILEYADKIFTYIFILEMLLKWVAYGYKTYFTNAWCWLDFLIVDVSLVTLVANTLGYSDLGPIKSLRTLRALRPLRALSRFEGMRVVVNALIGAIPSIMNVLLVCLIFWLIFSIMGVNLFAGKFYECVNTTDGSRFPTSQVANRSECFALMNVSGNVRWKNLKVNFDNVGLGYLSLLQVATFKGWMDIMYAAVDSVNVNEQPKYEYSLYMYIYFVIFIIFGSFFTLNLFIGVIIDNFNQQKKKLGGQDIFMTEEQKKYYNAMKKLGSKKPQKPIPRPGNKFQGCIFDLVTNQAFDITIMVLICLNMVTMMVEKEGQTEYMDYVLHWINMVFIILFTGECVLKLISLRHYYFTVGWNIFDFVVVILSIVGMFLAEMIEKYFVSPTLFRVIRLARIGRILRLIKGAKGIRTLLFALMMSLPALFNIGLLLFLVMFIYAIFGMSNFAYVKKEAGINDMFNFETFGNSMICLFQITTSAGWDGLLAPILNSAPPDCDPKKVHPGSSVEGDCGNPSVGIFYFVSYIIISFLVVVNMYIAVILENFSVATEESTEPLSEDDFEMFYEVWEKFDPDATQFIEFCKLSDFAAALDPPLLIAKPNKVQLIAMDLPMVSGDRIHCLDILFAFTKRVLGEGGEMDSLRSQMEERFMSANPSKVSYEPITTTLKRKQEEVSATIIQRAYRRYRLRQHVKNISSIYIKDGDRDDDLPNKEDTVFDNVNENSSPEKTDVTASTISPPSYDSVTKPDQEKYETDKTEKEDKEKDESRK

B1: μ-conotoxin KIIIA-P2, P0C195 (peptide)
chain: CCNCSSKWCRDHSRCC
[1]
  Kd: 230 nM
[2]
  Kd: 1570 nM
[3]
  Kd: 830 nM
